± gives the standard deviation of the averaged measurements.
The sequences below were run on ATP (assay: switch fluorescence ratio, 500 uM ATP over buffer (Cy3 cluster intensity, sum of 5 cycles each) (fold (ratio)); higher = stronger signal-on switching upon ATP binding; sequences stand for … in TCGTCGGCAGCGTCAGATGTGTATAAGAGACAGTTTTTTTTTTTTTTTTTTTTTTTTT…TC). Settings: aptamer strand: ATP DNA aptamer (quencher-CACCTGGGGGAGTATTGCGGAGGAAGG + anchor), 100 nM annealed; ATP concentration: 500 uM.
Procedure, shortened: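 Per cluster, summed Cy3 intensity from the target cycles was divided by that from the buffer cycles to give the fluorescence ratio, then averaged per switch-domain sequence. Clusters outside 100-1000 RFU were excluded. The Cy3-labelled switching-strand clusters, on a modified Illumina MiSeq flow-cell, were annealed to 100 nM quencher-labelled ATP aptamer and imaged in selection buffer, then after 15 min with 500 uM ATP at 22 °C, for five cycles with NaOH stripping and re-annealing between them.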
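Further: ATP exposure 15 min at 22 °C before imaging.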

| Sequence | switch fluorescence ratio |
| --- | --- |
| TTCGTTTATC | 1.07 ± 0.093 |
| CGATTTGGGG | 0.968 ± 0.017 |
| TGTTTGGGCG | 1.03 ± 0.077 |
| CAGCGCGGGA | 0.999 ± 0.014 |
| GGGGGTGAAC | 0.98 ± 0.029 |
| ACCAGTGATG | 1.01 ± 0.039 |
| ACAAAGTGTG | 1.03 ± 0.035 |
| GCTGAAAGTG | 1 ± 0.057 |
| GGAGGGACTG | 1.06 ± 0.17 |
| TTATCGCTTG | 0.9974 ± 0.003 |
| ATTTTATACA | 0.996 ± 0.03 |
| TTTAGGGGGA | 1.01 ± 0.044 |
| CGCAGGTTAG | 1.11 ± 0.025 |
| GCAACATTCT | 1.03 ± 0.022 |
| GTTCTAGGGT | 0.9743 ± 0.0042 |
| TTTGTAACAC | 1.25 ± 0.36 |
| TCAAGTGTTT | 0.993 ± 0.015 |
| AAAGTGTTCC | 1.03 ± 0.017 |
| TTAGCAGGTG | 2.78 ± 0.1 |
| GGGGGTTAAT | 1.013 ± 0.0037 |
| AAACTATGTG | 1.02 ± 0.037 |
| GATTTTCGCG | 1.02 ± 0.037 |
| AAATACGCAG | 1.07 ± 0.1 |
| ATAAGAGGGT | 0.976 ± 0.049 |
| TGGTGCAGGA | 0.9776 ± 0.0092 |

| Sequence | switch fluorescence ratio |
| --- | --- |
| CCAGGGGGAA | 1.09 ± 0.12 |
| AATTTCTCGT | 0.996 ± 0.016 |
| GTCAATGGGA | 1 ± 0.029 |
| GCTAGATCAC | 1.02 ± 0.025 |
| TCAGTGTTTT | 1 ± 0.04 |
| AAATAAATTG | 0.999 ± 0.044 |
| CTGGAATTTT | 0.9949 ± 0.0028 |
| CCCTGGACGG | 0.9883 ± 0.0053 |
| GCGGGTTGGC | 1.08 ± 0.011 |
| CGTTATACTG | 1.07 ± 0.027 |
| CCTTACATCG | 1.12 ± 0.044 |
| TCTCTTCCGT | 1.22 ± 0.056 |
| TTGCTGTCGG | 0.985 ± 0.038 |
| AGGGCAGGGC | 0.917 ± 0.069 |
| TGTTTGGCTG | 1.054 ± 0.0084 |
| GCTTTGTACG | 1.042 ± 0.0014 |
| TATACAAATT | 0.989 ± 0.043 |
| GCAGGTTGGT | 1.036 ± 0.0042 |
| GCACTCTGGG | 0.995 ± 0.029 |
| AGATTTTTCA | 1 ± 0.021 |
| GGCTGGGGGT | 1.1 ± 0.07 |
| CGGGCAGGGC | 1.04 ± 0.019 |
| TGCCATGTTT | 0.966 ± 0.014 |
| GAGGAGGATG | 0.987 ± 0.013 |
| GACTACGGTT | 1.006 ± 0.0095 |

| Sequence | switch fluorescence ratio |
| --- | --- |
| TTCAATGGTG | 1.023 ± 0.0014 |
| GGGCGTGTTT | 1 ± 0.031 |
| AGTTTTTAGA | 1.03 ± 0.033 |
| TGGGACGGTC | 1.1 ± 0.051 |
| AAATGGTGTG | 1.02 ± 0.019 |
| AATGACGAGC | 1.04 ± 0.017 |
| GGGATGTTAT | 1.03 ± 0.014 |
| CTAGTTGGAT | 0.9908 ± 0.0053 |
| TTTGGCTTAG | 0.991 ± 0.029 |
| AAGTAGTTAC | 1.05 ± 0.042 |
| TTGCCTTTTG | 1.08 ± 0.16 |
| ATGTCCCGTT | 0.98 ± 0.014 |
| TTCATGGAGT | 0.983 ± 0.028 |
| TCGGGGGGGA | 1.06 ± 0.14 |
| GCGGAACGTG | 0.997 ± 0.04 |
| ACAGCTGGGG | 1.0159 ± 0.00055 |
| ACGGCATTTG | 1.05 ± 0.024 |
| AAGGGGAATA | 1.01 ± 0.035 |
| ACATGGGCTA | 1.09 ± 0.11 |
| CACAAAAGCG | 1.01 ± 0.042 |
| GGTCGGGACG | 0.9588 ± 0.0015 |
| TTTTGCGCTG | 0.94 ± 0.019 |
| ATATATGAGG | 0.974 ± 0.03 |
| TGTATTATGT | 1.002 ± 0.004 |
| TGGCACGCGG | 0.986 ± 0.019 |

| Sequence | switch fluorescence ratio |
| --- | --- |
| GGATGACTGG | 0.9993 ± 0.0061 |
| GGGGGGGAAG | 1.01 ± 0.087 |
| TTTAATTGTT | 0.978 ± 0.034 |
| GAGGAGTGGT | 0.984 ± 0.015 |
| TTTTTTTAGG | 0.982 ± 0.03 |
| GTAGGGGGTC | 1.01 ± 0.027 |
| CACCGGTTGG | 1.014 ± 0.0044 |
| CGTAGCGTTT | 0.998 ± 0.04 |
| ACGGGAAGGC | 1.09 ± 0.035 |
| GGCCAAATCC | 1.006 ± 0.0056 |
| TCAAGGAGGT | 1.01 ± 0.13 |
| TCATTTGGAA | 0.99 ± 0.025 |
| TCTTGGAGAA | 1.05 ± 0.06 |
| CAAGGCAAGG | 1.07 ± 0.018 |
| GTTGGGTAGG | 0.963 ± 0.028 |
| GCGAGCAATG | 1.03 ± 0.027 |
| CCAGCCAATA | 3.36 ± 0.12 |
| GCTTTAGAGG | 1.004 ± 0.0053 |
| CGTTAAGGCT | 0.973 ± 0.015 |
| ACGCCTGGGC | 1.02 ± 0.023 |
| TTTTGGCCCC | 1.07 ± 0.084 |
| AAGTCAGGAG | 1.05 ± 0.07 |
| ACGGGTTAAT | 1.01 ± 0.026 |
| GTGATCTATA | 0.99 ± 0.025 |
| TCGAGGGCGA | 1.146 ± 0.0097 |

| Sequence | switch fluorescence ratio |
| --- | --- |
| TTGGTTCATG | 0.998 ± 0.015 |
| AATGTAGCAC | 1.048 ± 0.0063 |
| GCTAGCGTGG | 1.02 ± 0.091 |
| GGGGCTCAGA | 0.993 ± 0.011 |
| CTGGAAATTT | 1 ± 0.027 |
| GTAAGTCCGA | 0.98 ± 0.0033 |
| ACACTAGTGT | 0.985 ± 0.032 |
| TATTTTGGCC | 1.02 ± 0.04 |
| TGATAATGGG | 0.982 ± 0.036 |
| GGCATTCGTG | 0.9743 ± 0.0049 |
| CGAGGGGGAT | 1.19 ± 0.27 |
| TATGTGTGTG | 0.9889 ± 0.0089 |
| CAGCGCCGTT | 1.006 ± 0.004 |
| GTTCGGGCTC | 1.03 ± 0.019 |
| GTCTCGTTCC | 1.09 ± 0.14 |
| ATCAGAATGA | 1.013 ± 0.0023 |
| ATTGACGATC | 0.994 ± 0.016 |
| TAATTATGGG | 1.04 ± 0.056 |
| GGTCGGGTGC | 0.971 ± 0.047 |
| TAGTAGGGTT | 0.986 ± 0.021 |
| AGCCATTAGC | 0.992 ± 0.048 |
| GTGAGTTGGG | 1.01 ± 0.014 |
| AATATATGGA | 1 ± 0.023 |
| AAATATTGCG | 0.997 ± 0.034 |
| GAGTAAGTGG | 0.99 ± 0.039 |

| Sequence | switch fluorescence ratio |
| --- | --- |
| GGGGCGTCGT | 1.02 ± 0.029 |
| TTACAAGGGC | 1.013 ± 0.0087 |
| GGATTTTGGG | 1.01 ± 0.028 |
| TAAAGGTAAT | 1.01 ± 0.024 |
| ACATCCAATT | 0.99 ± 0.019 |
| CGTTCATTAG | 1.003 ± 0.0076 |
| GCAATCGTGG | 1.035 ± 0.0042 |
| AAAGTGTTCG | 0.9797 ± 0.0097 |
| AATGAGGGTC | 0.989 ± 0.11 |
| TTAGGGTTGT | 1 ± 0.023 |
| AAAAGGTCGT | 0.999 ± 0.019 |
| TATTGACAA | 1.02 ± 0.019 |
| GGCCGGATAG | 1.03 ± 0.021 |
| CGAACGGTTT | 0.989 ± 0.016 |
| GCTGGCTGGC | 1.01 ± 0.11 |
| GCATGGGCAG | 0.999 ± 0.023 |
| ATTGTTCTGG | 1.004 ± 0.0021 |
| TGAAGGGTGC | 1.02 ± 0.054 |
| TTGACTTGTG | 0.971 ± 0.022 |
| TAGCGGGTCA | 0.966 ± 0.012 |
| TTACGAAACG | 1.08 ± 0.045 |
| TAAGGAAAGG | 0.982 ± 0.027 |
| TCAAGCCGAG | 1.08 ± 0.062 |
| AGGAAGTGCC | 1.032 ± 0.0062 |
| AAGAAGTTTG | 0.9879 ± 0.0049 |

| Sequence | switch fluorescence ratio |
| --- | --- |
| GGGCCTTGAG | 1.031 ± 0.008 |
| CTAGTTGATG | 0.991 ± 0.022 |
| ATTGGGATGG | 1 ± 0.014 |
| ATATGTCAAG | 1.0025 ± 0.00017 |
| AAAATTTCGC | 1.01 ± 0.018 |
| TTGGGTTCAC | 0.988 ± 0.01 |
| AAAGGGTCAG | 0.996 ± 0.034 |
| ATTTGCTCGG | 1.036 ± 0.0097 |
| TAAGTCGTTG | 1.03 ± 0.12 |
| AGGATGAAAT | 0.992 ± 0.051 |
| CGTGGTTATG | 0.975 ± 0.06 |
| CGGGTCGGGA | 0.995 ± 0.041 |
| CGTCCGAGGT | 1.3 ± 0.048 |
| GCGAAAGGCT | 1.03 ± 0.024 |
| TTTTTTTCAT | 1 ± 0.028 |
| GGCTTTTTAC | 1.06 ± 0.036 |
| TAGGAGGTAT | 1.01 ± 0.048 |
| CTTAGTGCGG | 0.978 ± 0.0012 |
| AGGAATTTTC | 0.994 ± 0.032 |
| GGTTGCAAGC | 1.05 ± 0.017 |
| GATGACCTTT | 1.07 ± 0.14 |
| TTGTTAGGGC | 1.07 ± 0.017 |
| GGGCTGGTTT | 0.981 ± 0.02 |
| TGCCTTTTTT | 1 ± 0.016 |
| TTTATGGAAT | 0.998 ± 0.015 |

| Sequence | switch fluorescence ratio |
| --- | --- |
| TAGGGTGTTG | 1.01 ± 0.021 |
| AGAGGGGGTT | 0.971 ± 0.035 |
| TAAGGGGGTA | 0.992 ± 0.039 |
| CACTCCCGGA | 1.15 ± 0.16 |
| CTTGTGGCTT | 1.034 ± 0.0061 |
| AGTAAGACAG | 0.986 ± 0.08 |
| ATCTATCTGT | 1 ± 0.027 |
| AGAATGGATC | 1.01 ± 0.012 |
| CTAATTTAGT | 1.01 ± 0.014 |
| ATGGTTTCGC | 0.9932 ± 0.0067 |
| TCCTGCATGG | 1.22 ± 0.037 |
| GTTGTTTAGT | 0.994 ± 0.026 |
| AAGGGTGTTT | 1.01 ± 0.034 |
| TTGGGAAGTA | 0.985 ± 0.016 |
| TTTTCATTCC | 1.13 ± 0.15 |
| GGGCGTTTCA | 1.02 ± 0.02 |
| TTAAAAAGTA | 1.03 ± 0.02 |
| TTGGATGCCT | 1.01 ± 0.047 |
| AGCTAGGCGC | 1.01 ± 0.027 |
| GGTTCGGCTG | 0.982 ± 0.012 |
| ATATATTTAG | 0.996 ± 0.012 |
| ACATTGACGC | 1.08 ± 0.021 |
| AGCCTATACT | 1.6 ± 0.16 |
| AGTCCTGGCC | 0.999 ± 0.022 |
| CTACTGCCGT | 1.02 ± 0.034 |

Source: the supplement of paper PMC10126150
